B1: PA01P4C11 (antibody, V domains shown)
VH: EVQLLESGGGLLQLGGSLRLSCAASGFTFSSYVMSWVRQAPGKGLEWVSLITGSGGNTYYADSVKGRFTISRDNSKNTLFLQMNSLRVEDTAIYYCVKTDFYDSSGYYFHDAFHIWGQGTMVTVSS
VL: QTVVTQEPSLTVSPGGTVTLTCASSTGSVTSGYYPNWFQQKPGQAPRTLIYGTSNKHSWTPARFSGSLLGGKAALTLSDVQPEDEAEYYCLLYYGGAYVFGTGTKVTVL
notes: subject PA01; also called Clone PA01P4C11
B2: PA01P2D04 (antibody, human IgG1, V domains shown)
VH: QVQLLQSGPEVKQPGASVQVSCQTSGYTFTGYYIHWVRQAPGQGLEWVGWINPNRGHTNYGPAFQGRLTLTADTSSSTAYLELTRLRSDDTAVYYCARDRLTGGRDAFEIWGQGTMLIVSS
VL: DIQLTQSPSSLSASVGDRVTITCRASQSISSYLNWYQQKPGKAPKLLISVASSLQDGVPPRFSGSRSGTEFTLTISSLQPEDFAIYYCQQSYSLSWTFGQGTKVEIK
B3: PA01P2B12 (antibody, human IgG1, V domains shown)
VH: QVQLVQSGAEVKQPGASVQVACQTSGYIFTAYYIHWLRQAPGQGLEWVGWINPNRGHTNYAPGFQGRLTLTADTSSSTAYLALTRLASDDTAVYYCARDRLTGGRDAFEIWGQGTMLIVSS
VL: DIQLTQSPSSLSASVGDRVTITCRASQSVSSYLNWYQQKPGEAPKLLISAASSLQDGVPPRFSGSRSGTEFTLTISSLQPEDFAIYYCQQSYSLWWTFGQGTKVEIK
B4: PA01P2E10 (antibody, V domains shown)
VH: QVQLVQSGAEVKKPGASVKVSCKASGYTFTTYGISWVRQAPGQGLEWMGWISAYNGNTTYAQNFHARVTMTTDTSTSTAYMELRSLRSDDTAVYFCARTSARTITIFGVLIPAGLNLDYWGQGTLVTVSS
VL: QSALTQPASVSGSPGQSITISCTGTGSDVGRYNYVSWYQQHPGKAPKFMIYDVSNRPSGVSNRFSASKSGNTASLTISGLQAEDEADYYCSSYTSTSTLVFGGGTKLTVL
notes: subject PA01; also called Clone PA01P2E10
B5: PA01P2D11 (antibody, V domains shown)
VH: QLQLQESGSGLVKPSQTLSLTCDVSGDSMNDDVYTWSWIRQPPGRGLEWIGYISHTGNTFYNSSLQSRVTMSVDTSKNQFSLKLSSVTIADTAVYYCARLTFLFSAPFSSFNWFDPWGQGILVTVSS
VL: QSVLTQPPSVSGAPGQTITISCTGTPSNFGADYDVHWYQQRPGTAPKLLIFADKHRPSGVPDRFSGSRSGTSASLAISGLQAEDEADYYCQSYDSGVVGLWVFGGGTKVTVL
notes: subject PA01; also called Clone PA01P2D11
B6: PA01P2B09 (antibody, V domains shown)
VH: QVEVVESGGGVVQPGKSLRLSCAASGFKFNVYGIHWVRQAPGKGLEWVAVVWYDGSNKYYADSVKGRFTISRDNSKNTTYLQMDSLRVDDTAVYYCARELQYSNYDYFYAMDVWGQGTTVTVSS
VL: DIQMTQSPPSLSASVGDRVTITCRASQDIDNYLVWFQQKPGRAPKSLIYAASSLQSGVPSKFSGSGSGTEFTLTISSLQPEDFATYYCQQYNSFPYTFGQGTKLEIK
notes: subject PA01; also called Clone PA01P2B09
B7: PA01P2B05 (antibody, human IgG1, V domains shown)
VH: EVQLLESGGGLVQPGGSLRLSCVASGFTFSGHAMSWVRQAPGKGLEWVSGISGSGGSTYYADSVKGRFTISRDNSKKTVDLQMNNLRAEDTAIYYCAKDLHFDTSGYYYSMIFDYWGQGTLVPVSS
VL: QSALAQPASVSGSPGQSITISCTGTSSDISDYNYVSWYQQHPGKAPKLILYDVNNRPSGVSSRFSGSKSGDTASLTISGLQPEDEADYYCSSYTSTKIFGGGTKVTVL
B8: PA01P2E08 (antibody, human IgG1, V domains shown)
VH: QVQLVESGGGVVQPGRSLRLSCVASGFDLNAYGMHWVRQAPGKGLDWVAATSRGGTKKYYADSVKGRFTISRDVSKNTLYLQMGSLRTGDTAIYYCGVGMEDVFDIWGQGTMVTVSP
VL: QSVLTQPPSVSAAPGQKVTISCSENNSNIGNRNVSWYQQLPGKAPKLFIYDNNERPSGIPARFSGSKSGTSATLVITGLQTGDEADYYCGTWDRSLSVWVFGGGTKLTVL
B9: PA01P2E05 (antibody, V domains shown)
VH: QVQLVESGGGFVKPGGSLRLSCAVSGFTFSDYYMSWVRQAPGKGLEWLSHISSDGSDTNYADSVKGRFSISRDNAKNSVFLQMNTLRVEDTAVYYCARNALTNAYDMSGFRNWGQGTLVTVSS
VL: NFMLTQPHSVSESPGKTVILSCTRSSGSIASNYVRWYQQRPGSAPTTVIYEDSRRPSSVPDRFSGSIDSSSNSASLTISGLKTEDEADYYCQSFDSSSRKVVFGGGTKLTVL
notes: subject PA01; also called Clone PA01P2E05
B10: PA01P2C09 (antibody, V domains shown)
VH: QVDLVESGGGYVKSGGSLRLSCAASGFRFSDYYMSWVRQAPGKGLEWLSHISSDSSDTNYADSVKGRFSISRDNAKNSVFLQMNTLRAEDTAVYYCARNALTNAYDMSGFRNWGQGILVTVSS
VL: NFMLTQPHSVSESPGKTVILSCTRSSGSIATNYVRWYQQRPGSAPTTVIYEDSRRPSSVPDRFSGSIDSSSNSASLTISGLRTEDEADYYCQSFDTSSRKVVFGGGTKLTVL
notes: subject PA01; also called Clone PA01P2C09
B11: PA01P2G07 (antibody, V domains shown)
VH: QVLLVQSGSEVKNPGASIRVSCKTSGYMFTNNGIAWVREVPTQGLEWMGWISTYSGATHYAPNLHGRITMTADTSASTAYMELRSLQSGDTGVYYCARLWFGKLGLDFWGQGTQVTVSS
VL: QSVLTQPPSASGTPGQRVIISCSGSTSNIGTKTVNWYQHLPGTAPKLLIYNNNQRPSGVPDRFSGSKSGTSASLTISGLQSEDEADYYCAAWDDSLNGRGLFGPGTKVTVL
notes: subject PA01; also called Clone PA01P2G07
B12: PA01P3E08 (antibody, V domains shown)
VH: QVQLVQSGAEVKKPGASVKVSCKASGYTFIRYDIHWVRQATGQGLEWMGWMNPNNGKSGFAQKFEGRVTLTRNTSVTSTYMQLSSLGLEDTAVYYCVRAGYSYGWGFDYWGQGSLVTVSS
VL: NFTLTQPHSVSGSPGKTVTISCTRSSGGIASSHVQWYQQRPASAPTTLIFEDDQRSSGVPDRFSGSIDTSSNSAYLTISGLEAEDEADYYCQSYDNSMWVFGGGSKVTVL
notes: subject PA01; also called Clone PA01P3E08
B13: PA01P2D10 (antibody, human IgG1, V domains shown)
VH: EVLLLESGGGLVHPGGTLRLSCAASGFTFRNSAMTWVRQAPGKGLEWVSSIGGSGAKSYYADSVKGRFTISRDNSKNTLYLEMNTLRVDDTAIYYCAKDQLNCYDLWSGDYCWFDTWGQGTLVTVSS
VL: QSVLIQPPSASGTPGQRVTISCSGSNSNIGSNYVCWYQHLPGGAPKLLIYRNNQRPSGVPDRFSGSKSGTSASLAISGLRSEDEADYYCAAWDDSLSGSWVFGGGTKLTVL
B14: PA01P2C04 (antibody, V domains shown)
VH: QVQLQESGPGLVKPSETLSLTCSVSGGSISSHYWSWIRQPPGRGLEWIAYISYSGRTKYNPSLKSRVTISEDTSKNQFSLKLSSVTPADTAVYYCARIYGDYGPFIDYWGQGTLVTVSS
VL: DIQMTQSPSSLSASVGDRVTITCRASQTISTYLNWYQQKPGTAPMLLIYGAYSLHSGVPSRFSGSGSGTDFTLTISSLQPEDFATYYCQQSSSLPLTFGGGTKVEIK
notes: subject PA01; also called Clone PA01P2C04
B15: PA01P2D09 (antibody, human IgG1, V domains shown)
VH: EVQLLESGGGLVQPGGSLRLSCAVSGLKFSSYAMSWVRQAPGKGLEWVSVVSGSSGSTFYAVSVEGRFSISRDNSNNMLYMDMHSLRVEDTAKYYCAKVVGWYYDRNGNRRPKGFRAFDVWGQGTMVIVSS
VL: QSVLTQPPSASGTPGQRITIACSGTTSNIGGNSVNWYQQFPGAAPRLLIFDYDQRPSGVPARFSGSSSGSSGYLAISGLQSEDEADYYCSSWDDNLNGWVFGGGTKLTVL
notes: also called PA1P2D09

target: T1, BSA (UniProt P02769 25-607); assay: indirect ELISA heat map, hIgG subtracted
T1 construct: also called bovine serum albumin; immobilized BSA
T1 sequence (P02769 25-607 limits assumed): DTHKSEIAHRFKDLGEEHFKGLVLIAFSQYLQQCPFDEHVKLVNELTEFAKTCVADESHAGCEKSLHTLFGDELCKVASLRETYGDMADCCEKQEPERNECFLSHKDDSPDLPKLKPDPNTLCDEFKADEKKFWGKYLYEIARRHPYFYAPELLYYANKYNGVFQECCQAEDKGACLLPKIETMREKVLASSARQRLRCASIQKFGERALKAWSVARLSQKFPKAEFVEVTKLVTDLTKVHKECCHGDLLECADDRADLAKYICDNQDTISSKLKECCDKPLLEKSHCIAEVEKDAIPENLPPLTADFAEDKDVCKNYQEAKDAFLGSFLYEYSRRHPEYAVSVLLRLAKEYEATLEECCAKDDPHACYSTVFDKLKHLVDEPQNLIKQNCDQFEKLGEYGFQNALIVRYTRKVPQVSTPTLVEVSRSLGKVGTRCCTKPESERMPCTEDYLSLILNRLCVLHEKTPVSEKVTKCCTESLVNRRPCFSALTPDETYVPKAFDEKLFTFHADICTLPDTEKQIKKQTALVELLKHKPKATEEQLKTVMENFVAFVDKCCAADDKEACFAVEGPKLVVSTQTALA

Binding result, no binding (tested: 2 ng/µL):
B1
B2
B3
B4
B5
B6
B7
B8
B9
B10
B11
B12
B13
B14
B15
